These results are taken from PMC3397946, “Identification and Characterization of the Cognate Anti-Sigma Factor and Specific Promoter Elements of a T. tengcongensis ECF Sigma Factor”.

Where a chain is given by its changes, count along the chain named. Names may count otherwise.

The target of data set [1] is T1, Tt-RpoE1 (Thermoanaerobacter tengcongensis MB4T, UniProt Q8RCT7 1-162).
T1 sequence: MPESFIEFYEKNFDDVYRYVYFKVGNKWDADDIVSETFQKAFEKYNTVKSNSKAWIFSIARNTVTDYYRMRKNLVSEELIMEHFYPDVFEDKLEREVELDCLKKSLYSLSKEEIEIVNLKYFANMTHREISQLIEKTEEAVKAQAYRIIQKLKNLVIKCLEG
Nature of the data set: EMSA; 5 uM protein; strongest; 50 mM Tris-HCl pH 8.0, 10 mM MgAc2, 30 mM NaCl, 1 mM DTT, 5% glycerol, 30 ug/ml BSA, 0.5 mM EDTA, 1 ug poly(dI-dC), 20 fmol probe in 20 ul, 25 C, 20 min. The settings on record: protein: recombinant; tags: His (pET28a); label: 5'-32P top strand; fork: top 3' overhang 12 nt.

For data set [2], the target named is T1, Tt-RpoE1. The experiment in a line: EMSA; 5 uM protein; little effect; 50 mM Tris-HCl pH 8.0, 10 mM MgAc2, 30 mM NaCl, 1 mM DTT, 5% glycerol, 30 ug/ml BSA, 0.5 mM EDTA, 1 ug poly(dI-dC), 20 fmol probe in 20 ul, 25 C, 20 min. The note with it: protein: recombinant, tags: His (pET28a), label: 5'-32P top strand.
Data set [3] has as its target T1, Tt-RpoE1. Nature of the data set: EMSA; 5 uM protein; abolished; 50 mM Tris-HCl pH 8.0, 10 mM MgAc2, 30 mM NaCl, 1 mM DTT, 5% glycerol, 30 ug/ml BSA, 0.5 mM EDTA, 1 ug poly(dI-dC), 20 fmol probe in 20 ul, 25 C, 20 min. The note with it: protein: recombinant; tags: His (pET28a); label: 5'-32P top strand; fork: top 3' overhang 10 nt. A general note: A gel shift assay detects complexes by their altered migration in electrophoresis.

Data set [4] concerns the target T1, Tt-RpoE1. The experiment in a line: EMSA; 5 uM protein; 50 mM Tris-HCl pH 8.0, 10 mM MgAc2, 30 mM NaCl, 1 mM DTT, 5% glycerol, 30 ug/ml BSA, 0.5 mM EDTA, 1 ug poly(dI-dC), 20 fmol probe in 20 ul, 25 C, 20 min. The settings on record: protein: recombinant; tags: His (pET28a); label: 5'-32P top strand; fork: top 3' overhang 10 nt.
The target in data set [5] is T1, Tt-RpoE1. Nature of the data set: EMSA; 5 uM protein; parental; 50 mM Tris-HCl pH 8.0, 10 mM MgAc2, 30 mM NaCl, 1 mM DTT, 5% glycerol, 30 ug/ml BSA, 0.5 mM EDTA, 1 ug poly(dI-dC), 20 fmol probe in 20 ul, 25 C, 20 min. The note with it: protein: recombinant; tags: His (pET28a); label: 5'-32P top strand; fork: top 3' overhang 12 nt.
The target in data set [6] is T2, Tt-RpoE1 R69A (Thermoanaerobacter tengcongensis MB4T, UniProt Q8RCT7 1-162, R69A).
T2 sequence: T1 sequence with R69A
The experiment in a line: EMSA; 5 uM protein; affinity remained; 50 mM Tris-HCl pH 8.0, 10 mM MgAc2, 30 mM NaCl, 1 mM DTT, 5% glycerol, 30 ug/ml BSA, 0.5 mM EDTA, 1 ug poly(dI-dC), 20 fmol probe in 20 ul, 25 C, 20 min. The note with it: protein: recombinant; tags: His (pET28a); label: 5'-32P top strand; fork: top 3' overhang 12 nt.

Data set [7] concerns the target T3, Tt-RpoE1 Y67A (Thermoanaerobacter tengcongensis MB4T, UniProt Q8RCT7 1-162, Y67A).
T3 sequence: T1 sequence with Y67A
The data set is described as above. The note with it: protein: recombinant; tags: His (pET28a); label: 5'-32P top strand; fork: top 3' overhang 12 nt.

Data set [8] addresses T4, Tt-RpoE1 D66A (Thermoanaerobacter tengcongensis MB4T, UniProt Q8RCT7 1-162, D66A).
T4 sequence: T1 sequence with D66A
Nature of the data set: EMSA; 5 uM protein; D66A cures -12G defect; 50 mM Tris-HCl pH 8.0, 10 mM MgAc2, 30 mM NaCl, 1 mM DTT, 5% glycerol, 30 ug/ml BSA, 0.5 mM EDTA, 1 ug poly(dI-dC), 20 fmol probe in 20 ul, 25 C, 20 min. The settings on record: protein: recombinant; tags: His (pET28a); label: 5'-32P top strand; fork: top 3' overhang 12 nt.

For data set [9], the target named is T1, Tt-RpoE1. Nature of the data set: EMSA; 5 uM protein; abolition; 50 mM Tris-HCl pH 8.0, 10 mM MgAc2, 30 mM NaCl, 1 mM DTT, 5% glycerol, 30 ug/ml BSA, 0.5 mM EDTA, 1 ug poly(dI-dC), 20 fmol probe in 20 ul, 25 C, 20 min. The note with it: protein: recombinant; tags: His (pET28a); label: 5'-32P top strand; fork: top 3' overhang 10 nt.

B1: T+1/B-12 (dsDNA)
DNA 1: GGTATTGTTACCTTTTGTGTAGATTTTCGTCTATAAAGGTG
DNA 2: CGAAAATCTACACAAAAGGTAACAATACC
Consider B1, for which, in data set [1], the binding result is recorded as “binds”.

B2: D-5-BM4 (-9TATA-6 to CCCC) (dsDNA)
DNA 1: TGTTACCTTTTGTGTAGATTTTCGTCCCCCAAGGTG
DNA 2: CGAAAATCTACACAAAAGGTAACA
On to B2, for which the binding result in [2] (fork: top 3' overhang 12 nt) was “binds”.

B3: D-5-6c (-30C to T) (dsDNA)
DNA 1: TGTTATCTTTTGTGTAGATTTTCGTCTATAAAGGTG
DNA 2: GACGAAAATCTACACAAAAGATAACA
On to B3, for which the binding result in data set [3] was “no binding”.

B4: D-5-BM3 (-9TA-8 to CC) (dsDNA)
DNA 1: B2 DNA 1 with C29T, C30A
DNA 2: CGAAAATCTACACAAAAGGTAACA
As to B4, the binding result in data set [2] (fork: top 3' overhang 12 nt) is listed as “binds”.

B5: D-5/-10 (dsDNA)
DNA 1: B3 DNA 1 with T6C
DNA 2: GACGAAAATCTACACAAAAGGTAACA
For the molecule B5, in data set [4], the binding result is “binds”.

B6: D-5/-12 (dsDNA)
DNA 1: B3 DNA 1 with T6C
DNA 2: CGAAAATCTACACAAAAGGTAACA
In the case of B6, the binding result in [5], in [6] and in data set [7] was “binds” each time.

B7: D-5-B2G (-12G to T) (dsDNA)
DNA 1: B3 DNA 1 with T6C, G24T
DNA 2: AGAAAATCTACACAAAAGGTAACA
As to B7, the binding result in [8] was “binds”.

B8: D-5-b5t/-12 (-9T to G) (dsDNA)
DNA 1: B3 DNA 1 with T6C, T27G
DNA 2: CGAAAATCTACACAAAAGGTAACA
For the molecule B8, the binding result in data set [2] (fork: top 3' overhang 12 nt) is listed as “binds”.

B9: D-5-M5 (-32TACC-29 to GGTT) (dsDNA)
DNA 1: B3 DNA 1 with T4G, A5G, C7T
DNA 2: GACGAAAATCTACACAAAAAACCACA
Regarding B9, the binding result in data set [9] is recorded as “no binding”.

B10: D-5-7c (-29C to T) (dsDNA)
DNA 1: B3 DNA 1 with T6C, C7T
DNA 2: GACGAAAATCTACACAAAAAGTAACA
For the molecule B10, the binding result in data set [2] (fork: top 3' overhang 10 nt) was “binds”.

B11: D-5-B1C (-13C to T) (dsDNA)
DNA 1: B3 DNA 1 with T6C, C23T
DNA 2: CAAAAATCTACACAAAAGGTAACA
On to B11, for which the binding result in data set [2] (fork: top 3' overhang 12 nt) is on record as “binds”.

B12: D-5-b7t/-12 (-7T to G) (dsDNA)
DNA 1: B3 DNA 1 with T6C, T29G
DNA 2: CGAAAATCTACACAAAAGGTAACA
For the molecule B12, the binding result in [2] (fork: top 3' overhang 12 nt) is “binds”.

B13: D-5-b8a/-12 (-6A to G) (dsDNA)
DNA 1: B3 DNA 1 with T6C, A30G
DNA 2: CGAAAATCTACACAAAAGGTAACA
B13: the binding result in data set [2] (fork: top 3' overhang 12 nt) was “binds”.

B14: D-5-b6a/-12 (-8A to G) (dsDNA)
DNA 1: B3 DNA 1 with T6C, A28G
DNA 2: CGAAAATCTACACAAAAGGTAACA
With B14, the binding result in data set [2] (fork: top 3' overhang 12 nt) is reported as “binds”.
